Assay results reported in patent publication US8298798B2, “Production of C5-C8 alcohols using evolved enzymes and metabolically engineered microorganisms” (The Regents of the University of California, priority 2008, dated 2012).
In brackets after ≈: the same amount, converted by molar mass.

Columns and labels:
[1] = cited from earlier work
[2] = target: F381L/V461A KIVD (Lactococcus lactis, UniProt A0A0B8QZ66, form not given/V461A); experiment: coupled enzymatic assay of KIVD decarboxylation activity; assay type: biochemical; settings: for kcat: substrate of V461A/F381L KIVD, 30° C., pH 6.8
From the text: (§1) Protein Expression and Purification. Both gene fragments encoding wild type and F381L/V461A KIVD were amplified from plasmid pZE_LeuABCDKA6 using primers hiskivd_tevfwd and hiskivd_bamrev. After digestion with BamHI, the gene fragments were inserted into expression plasmid pQE9 (Qiagen) to yield pQE_hiskivd_wt and pQE_hiskivd_FL. The ADH6 gene fragment was amplified from yeast genomic DNA using primers hisadh_tevfwd and hisadh_bamrev, digested with BamHI and inserted into pQE9 to generate pQE_hisadh6. Similarly, genes encoding G462D and G462D/S139G LeuA were amplified from plasmid pZE_LeuABCDKA6 using primers hisleua_tevfwd and hisleua_bamrev. After digestion with BamHI, the PCR products were ligated into pQE9 to create pQE_hisleua_GD and pQE_hisleua_GS. The resulting expression plasmids pQE_hiskivd_wt, pQE_hiskivd_FL, pQE_hisadh6, pQE_hisleua_GD and pQE_hisleua_GS were transformed into E. coli strain BL21(DE3) harboring pREP4 (Qiagen). Cells were inoculated from an overnight pre-culture at 1/100 dilution and grown in 200 ml 2XYT rich medium containing 50 mg/L ampicillin and 25 mg/L kanamycin. At an OD600 of 0.6, recombinant proteins were expressed by induction of the cell cultures with 0.1 mM IPTG, followed by incubation at 30° C. overnight. Cell pellets were lysed by sonication in a buffer containing 250 mM NaCl, 2 mM DTT, 5 mM imidazole, and 50 mM Tris pH 9.0. By applying a stepwise gradient of imidazole (up to 250 mM), enzymes were purified from crude cell lysates through Ni-NTA column chromatography. The fractions of highest purity were pooled and buffer-exchanged using Amicon Ultra centrifugal filters (Millipore). Storage buffer 1 ([…], pH 8.0, 1 mM MgSO4, and 20% glycerol) was used for LeuA and ADH6, and storage buffer 2 ([…], pH 8.0, 1 mM MgSO4, 0.2 mM ThDP, and 20% glycerol) was used for KIVD. The concentrated protein solutions were aliquoted (100 μl) into PCR tubes and flash frozen at −80° C. for long term storage.
(§2) Enzymatic Assay of KIVD. Substrate 2-ketoisovalerate (KIV) was purchased from Sigma-Aldrich, and (S)-2-keto-4-methylhexanoate (KHV) was custom synthesized by AsisChem. Inc. Protein concentration was determined by measuring UV absorbance at 280 nm. The decarboxylation activity of KIVD was measured at 30° C. using a coupled enzymatic assay method. Excess ADH6 was used to reduce aldehyde into alcohol, and concomitantly, cofactor NADPH was oxidized to NADP+. The assay mixture contained 0.2 mM NADPH, 0.1 μM ADH6 and 0.1-20 mM 2-keto acids in assay buffer (50 mM potassium phosphate buffer, pH 6.8, 1 mM MgSO4, 0.5 mM ThDP) with a total volume of 0.2 mL. The reactions were started by adding 2 μl KIVD (final concentration: for KIV, 20 nM wt KIVD, 200 nM F381L/V461A KIVD; for KHV, 50 nM both), and the consumption of NADPH was monitored at 340 nm (extinction coefficient, 6.22 mM^−1 cm^−1). Kinetic parameters (kcat and Km) were determined by fitting initial velocity data to the Michaelis-Menten equation using Origin.

[3] = target: wild type KIVD (Lactococcus lactis, UniProt A0A0B8QZ66); experiment: as above; assay type: biochemical; settings: for kcat: substrate of Wild type KIVD, 30° C., pH 6.8
From the text: as §1, §2

[4] = target: T1, G462D LeuA (Escherichia coli, UniProt P09151, G462D); experiment: measurement of LeuA activity (DTNB); assay type: biochemical, E. coli; settings: for kcat: substrate of G462D LeuA, 30° C., pH 8.0
T1 construct: His tag (pQE9 vector, Ni-NTA purified) (N); TEV protease site (ENLYFQG, encoded by the forward primer) (N); made in house; host or cells: E. coli BL21(DE3) harboring pREP4
T1 sequence (P09151 whole entry G462D): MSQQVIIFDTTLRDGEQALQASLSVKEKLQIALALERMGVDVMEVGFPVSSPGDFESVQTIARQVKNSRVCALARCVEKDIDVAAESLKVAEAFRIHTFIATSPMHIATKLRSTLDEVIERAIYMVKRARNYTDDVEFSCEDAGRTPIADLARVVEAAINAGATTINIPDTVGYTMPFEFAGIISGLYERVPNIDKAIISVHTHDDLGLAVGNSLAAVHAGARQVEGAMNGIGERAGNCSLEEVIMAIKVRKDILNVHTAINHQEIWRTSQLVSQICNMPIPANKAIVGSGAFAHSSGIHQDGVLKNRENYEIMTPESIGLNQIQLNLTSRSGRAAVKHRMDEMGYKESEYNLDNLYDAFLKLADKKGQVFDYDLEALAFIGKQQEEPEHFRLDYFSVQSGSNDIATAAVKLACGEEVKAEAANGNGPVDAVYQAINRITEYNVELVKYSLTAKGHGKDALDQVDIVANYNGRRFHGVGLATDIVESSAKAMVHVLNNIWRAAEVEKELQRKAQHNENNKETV
From the text: as §1
(§3) Measurement of LeuA activity. The assay mixture contained 100 mM KCl, 2 mM MgCl2, 1 mM acetyl-CoA, and 100 mM Tris pH 8.0 with a total volume of 100 μl. 100 nM G462D or G462D/S139G LeuA was reacted with 2-ketoisovalerate in a concentration range from 25 μM to 1 mM for 10 minutes at 30° C. While 4 μM G462D or 1.5 μM G462D/S139G LeuA was reacted with (S)-2-keto-3-methylvalerate in a concentration range from 50 μM to 2 mM for 30 minutes at 30° C. The reactions were stopped by adding 0.3 ml of ethanol. Then 0.2 ml of a fresh 1 mM solution of 5,5′-Dithio-Bis (2 Nitrobenzoic Acid) in 100 mM Tris buffer pH 8.0 was added, and the yellow color product was measured at 412 nm. The values obtained were corrected for unspecific hydrolysis by subtracting the absorbance of controlled samples without addition of 2-keto acids. A molar extinction coefficient of 13,600 M^−1 cm^−1 was used in the final calculations.

[5] = target: T2, G462D/S139G LeuA (Escherichia coli, UniProt P09151, G462D/S139G); experiment: measurement of LeuA activity (DTNB); assay type: biochemical, E. coli
T2 construct: His tag (pQE9 vector, Ni-NTA purified) (N); TEV protease site (ENLYFQG, encoded by the forward primer) (N); made in house; host or cells: E. coli BL21(DE3) harboring pREP4
T2 sequence (P09151 whole entry S139G/G462D): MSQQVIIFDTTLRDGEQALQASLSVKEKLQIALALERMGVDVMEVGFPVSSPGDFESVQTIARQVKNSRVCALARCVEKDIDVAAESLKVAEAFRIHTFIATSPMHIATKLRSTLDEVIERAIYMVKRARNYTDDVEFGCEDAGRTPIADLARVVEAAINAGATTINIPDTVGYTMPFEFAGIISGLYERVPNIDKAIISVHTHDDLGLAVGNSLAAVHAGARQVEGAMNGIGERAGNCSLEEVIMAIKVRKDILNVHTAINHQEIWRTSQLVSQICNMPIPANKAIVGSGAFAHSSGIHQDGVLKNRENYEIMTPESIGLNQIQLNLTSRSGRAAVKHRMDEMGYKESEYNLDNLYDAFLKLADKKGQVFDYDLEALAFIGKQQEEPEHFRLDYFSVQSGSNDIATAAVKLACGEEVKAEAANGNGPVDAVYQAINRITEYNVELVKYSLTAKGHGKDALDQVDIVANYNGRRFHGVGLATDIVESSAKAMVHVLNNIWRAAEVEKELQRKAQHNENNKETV
From the text: as §1, §3

[6] = test system: CC[C@H](C)C(=O)C(=O)O; experiment: measurement of LeuA activity (DTNB); assay type: biochemical, E. coli; settings: 30° C., pH 8.0
From the text: as §1, §3

[7] = test system: CC(C)C(=O)C(=O)O; experiment: measurement of LeuA activity (DTNB); assay type: biochemical, E. coli; settings: 30° C., pH 8.0
From the text: as §1, §3

[8] = substrate: CC(C)C(=O)C(=O)O; experiment: coupled enzymatic assay of KIVD decarboxylation activity; assay type: biochemical, Lactococcus lactis; settings: other: substrate of Wild type KIVD, 30° C., pH 6.8
From the text: as §1, §2

[9] = substrate: CC[C@H](C)CC(=O)C(=O)O; experiment: as above; assay type: biochemical, Lactococcus lactis; settings: other: substrate of Wild type KIVD, 30° C., pH 6.8
From the text: as §1, §2

[10] = other: substrate of G462D/S139G LeuA

CCCCCO [1-Pentanol]
water solubility [1]: 23 mg/mL (≈ 261 mM)

CCCCCCCO [1-heptanol]
water solubility [1]: 1.2 mg/mL (≈ 10.3 mM)

CC(C)C(=O)C(=O)O [2-Ketoisovalerate]
kcat [2]: 2.7 ± 0.6 s⁻¹
kcat ([2]; listed as 2-ketoisovalerate): 2.7 s⁻¹
kcat [3]: 38.3 s⁻¹
kcat [4]: 6.0 s⁻¹

CC[C@H](C)C(=O)C(=O)O [(S)-2-keto-3-methylvalerate]
increase of kcat by the S139G mutation ([5]; G462D/S139G versus G462D LeuA): 7 fold
kcat ([5]; substrate of G462D/S139G LeuA, 30° C., pH 8.0): 0.12 s⁻¹
kcat, fold less than that for 2-ketoisovalerate ([4]; G462D LeuA): 333 fold
kcat [4]: 0.018 s⁻¹

CC[C@H](C)CC(=O)C(=O)O [(S)-2-keto-4-methylhexanoate]
specificity constant kcat/Km relative to that towards 2-ketoisovalerate ([2]; F381L/V461A KIVD): 40 fold
kcat [2]: 3.0 ± 0.1 s⁻¹
kcat ([2]; listed as 2-keto-4-methylhexanoate): 3.0 s⁻¹
kcat [3]: 10.8 s⁻¹
specificity constant kcat/Km relative to that towards 2-ketoisovalerate ([3]; wild type KIVD): 4 fold

G462D LeuA (Escherichia coli K-12; G462D)
Km ([6]; other: substrate of G462D LeuA): 55 µM
kcat ([6]; other: substrate of G462D LeuA): 0.018 ± 0.001 s⁻¹
kcat/Km ([6]; other: substrate of G462D LeuA): 330 M⁻¹ s⁻¹
Km ([7]; other: substrate of G462D LeuA): 182 µM
kcat ([7]; other: substrate of G462D LeuA): 6.0 ± 0.3 s⁻¹
kcat/Km ([7]; other: substrate of G462D LeuA): 33000 M⁻¹ s⁻¹

G462D/S139G LeuA (Escherichia coli K-12; G462D/S139G)
Km [6, 10]: 144 ± 13 µM
kcat [6, 10]: 0.12 ± 0.02 s⁻¹
kcat/Km [6, 10]: 830 M⁻¹ s⁻¹
Km [7, 10]: 104 ± 5 µM
kcat [7, 10]: 2.1 ± 0.1 s⁻¹
kcat/Km [7, 10]: 20000 M⁻¹ s⁻¹

B1: wild type KIVD (Lactococcus lactis subsp. lactis) (protein)
chain: MYTVGDYLLDRLHELGIEEIFGVPGDYNLQFLDQIISRKDMKWVGNANELNASYMADGYARTKKAAAFLTTFGVGELSAVNGLAGSYAENLPVVEIVGSPTSKVQNEGKFVHHTLADGDFKHFMKMHEPVTAARTLLTAENATVEIDRVLSALLKERKPVYINLPVDVAAAKAEKPSLPLKKENSTSNTSDQEILNKIQESLKNAKKPIVITGHEIISFGLEKTVSQFISKTKLPITTLNFGKSSVDEALPSFLGIYNGKLSEPNLKEFVESADFILMLGVKLTDSSTGAFTHHLNENKMISLNIDEGKIFNESIQNFDFESLISSLLDLSEIEYKGKYIDKKQEDFVPSNALLSQDRLWQAVENLTQSNETIVAEQGTSFFGASSIFLKPKSHFIGQPLWGSIGYTFPAALGSQIADKESRHLLFIGDGSLQLTVQELGLAIREKINPICFIINNDGYTVEREIHGPNQSYNDIPMWNYSKLPESFGATEERVVSKIVRTENEFVSVMKEAQADPNRMYWIELILAKEDAPKVLKKMGKLFAEQNKS
Km [8]: 2200 µM
kcat [8]: 38.3 ± 9.8 s⁻¹
kcat/Km [8]: 17000 M⁻¹ s⁻¹
Km [9]: 140 µM
kcat [9]: 10.8 ± 0.3 s⁻¹
kcat/Km [9]: 77000 M⁻¹ s⁻¹
